The target of one test is T1, hiR2-FL-G546A-T7 (human, UniProt Q6PJF5 1-856).
T1 sequence: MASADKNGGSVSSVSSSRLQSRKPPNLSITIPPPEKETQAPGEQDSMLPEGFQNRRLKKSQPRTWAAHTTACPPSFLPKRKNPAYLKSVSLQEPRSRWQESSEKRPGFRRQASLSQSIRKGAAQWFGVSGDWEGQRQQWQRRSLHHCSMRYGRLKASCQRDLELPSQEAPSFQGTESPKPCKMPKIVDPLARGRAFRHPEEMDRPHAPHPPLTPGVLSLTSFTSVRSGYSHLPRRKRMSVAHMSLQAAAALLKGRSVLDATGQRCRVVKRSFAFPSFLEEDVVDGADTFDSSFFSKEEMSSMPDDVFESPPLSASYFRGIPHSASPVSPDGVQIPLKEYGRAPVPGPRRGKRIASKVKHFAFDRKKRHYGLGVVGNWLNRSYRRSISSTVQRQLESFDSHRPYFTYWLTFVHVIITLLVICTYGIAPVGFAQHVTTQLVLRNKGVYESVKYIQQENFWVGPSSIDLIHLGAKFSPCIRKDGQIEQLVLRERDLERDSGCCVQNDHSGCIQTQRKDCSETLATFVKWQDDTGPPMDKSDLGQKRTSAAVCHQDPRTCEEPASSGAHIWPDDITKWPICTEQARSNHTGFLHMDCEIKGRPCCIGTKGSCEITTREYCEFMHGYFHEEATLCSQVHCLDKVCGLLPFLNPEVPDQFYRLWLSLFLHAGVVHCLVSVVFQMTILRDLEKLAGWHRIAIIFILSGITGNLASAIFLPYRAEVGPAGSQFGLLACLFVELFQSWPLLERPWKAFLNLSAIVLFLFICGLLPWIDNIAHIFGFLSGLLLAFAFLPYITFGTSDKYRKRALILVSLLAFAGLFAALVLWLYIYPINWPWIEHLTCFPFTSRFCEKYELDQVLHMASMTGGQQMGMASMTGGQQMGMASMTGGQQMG
The test can be described thus: FACS on MEF-DKO cells expressing the variant, 3 µg/ml antibody. The procedure, abridged: (§1)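 Primary stain: antibody 3 μg/ml, 1 h on ice; controls buffer alone. Secondary: PE anti-mouse IgG F(ab′)2 1:100, 1 h on ice, light-protected. Washes at 4° C; read by flow cytometry.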

Another test deals with T2, hiR2-FL-K536A-T7 (human, UniProt Q6PJF5 1-856).
T2 construct: on MEF-DKO cells
T2 sequence: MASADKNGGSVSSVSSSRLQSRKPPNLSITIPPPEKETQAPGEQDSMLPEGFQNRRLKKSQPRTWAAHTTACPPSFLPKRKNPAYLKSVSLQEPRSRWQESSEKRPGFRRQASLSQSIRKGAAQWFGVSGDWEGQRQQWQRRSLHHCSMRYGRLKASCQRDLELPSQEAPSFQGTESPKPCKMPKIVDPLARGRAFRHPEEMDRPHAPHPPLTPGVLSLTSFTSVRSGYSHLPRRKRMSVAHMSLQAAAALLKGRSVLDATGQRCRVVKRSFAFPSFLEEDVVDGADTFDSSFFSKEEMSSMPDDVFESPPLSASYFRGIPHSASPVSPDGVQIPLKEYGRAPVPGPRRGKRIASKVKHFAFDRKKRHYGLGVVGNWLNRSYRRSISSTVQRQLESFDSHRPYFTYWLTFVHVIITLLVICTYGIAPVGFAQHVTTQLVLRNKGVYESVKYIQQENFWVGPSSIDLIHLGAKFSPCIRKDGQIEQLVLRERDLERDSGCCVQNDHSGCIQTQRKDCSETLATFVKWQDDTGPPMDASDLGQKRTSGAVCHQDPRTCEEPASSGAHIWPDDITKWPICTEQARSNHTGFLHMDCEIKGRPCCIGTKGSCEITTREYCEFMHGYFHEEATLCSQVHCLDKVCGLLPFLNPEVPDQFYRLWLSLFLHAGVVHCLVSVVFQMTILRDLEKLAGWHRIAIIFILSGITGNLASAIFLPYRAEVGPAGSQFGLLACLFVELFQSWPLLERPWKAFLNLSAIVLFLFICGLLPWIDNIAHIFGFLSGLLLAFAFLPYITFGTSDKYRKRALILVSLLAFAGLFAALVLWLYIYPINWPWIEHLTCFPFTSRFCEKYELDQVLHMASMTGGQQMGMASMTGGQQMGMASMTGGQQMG
The description is as above. The essentials:
as §1

Where only a bound is given, the exact number is not on record here.

B1: antibody 5 (antibody, V domains shown)
VH: QVTLKESGPGILQPSQTLSLTCSFSGFSLSTFGMGVGWIRQPSGKGLEWLAHIWWDDEKYYNSALKSRLTISKATSKNQAFLKIANVDTADTATYYCARISNYGSNYWYFNVWGTGTTVTVSS
VL: QVVLTQSPALMSASPGEKVTMTCSAGSSVSCMYWYQQKPGSSPRVLIYDTSNLASGVPARFTGSGSGTSYSLTISRMEAEDAASYYCQQWNSYPLTFGAGTKLELK
notes: mouse IgG, kappa light chain; also called clone #5; purified antibody 5
With B1, the results for the “loss of binding vs wild type” value with hiR2-FL-G546A-T7 and with hiR2-FL-K536A-T7 were not below 30% and not below 95%, respectively.

B2: antibody 43 (antibody, V domains shown)
VH: QVALKESGPGILQPSQTLSLTCSFSGFSLSTFGMGVGWIRQSSGKGLEWLANIWWDDDKYYNPALKSRLTISKDASKNQAFLKIANVDTADTATYYCARIGNYGSNYWYFDVWGTGTTVTVSS
VL: QIVLTQSPAIMSASPGERVTMTCSANSRISYMYWYQQKPGSSPRLLIYDTSNLASGVPVRFSGSGSGTSYSLTISRMEAEDAATYNCQQWSSYPLTFGAGTKLELK
notes: mouse IgG, kappa light chain; also called clone #43; purified antibody 43
As to B2, the entries for the “loss of binding vs wild type” value in the test with hiR2-FL-G546A-T7 and in the test with hiR2-FL-K536A-T7 were not below 30% and not below 60%, respectively.

B3: antibody 44 (antibody, V domains shown)
VH: QVTLKESGPGILQPSQTLSLTCSFSGFSLSTFGMGVGWIRQPSEKGLEWLAHIWWDDDKYYNPALKSRLTISKDTSKNQIFLKITNVDTAETATYYCSRIGNYGSNYWYFDVWGTGTTVTVSS
VL: QIVLTQSPAVMSASPGEKVTMTCTASSSVYYMYWYQQTPGSSPRLLIYDTSNLASGVPVRFSGSGSGTSYSLTISRMEAEDAATYYCQQWNTYPLTFGAGTKLELK
notes: mouse IgG, kappa light chain; also called clone #44; purified antibody 44
Regarding B3, the “loss of binding vs wild type” value with hiR2-FL-G546A-T7 was not below 30%.

B4: antibody 34 (antibody, V domains shown)
VH: QVTLKESGPGILQPSQTLSLTCSFSGFSLSTFSLGVGWIRQSSGKGLEWLAHIWWDDEKYYNPALKSRLTISKDTSKNQVFLKIANVDAADTATYYCARAYYSKSYYALDYWGQGTSVTVSS
VL: DIQMTQSPSSLSASLGERVSLTCRASQEISGYLSWLQQKPDGTIKRLIYAASTLDSGVPKRFSGSRSGSDYSLAISSLESEDFADYYCLQYANFPFTFGSGTKLEIK
notes: mouse IgG, kappa light chain; also called clone #34; purified antibody 34
Take B4: the “loss of binding vs wild type” value in the test with hiR2-FL-G546A-T7 is not below 30%.

B5: antibody 16 (antibody, V domains shown)
VH: QVTLKESGPGILQPSQTLSLTCSFSGFSLSTFALGVGWIRQPSGRGLEWLAHIWWDDDKYYNPALKSRLTISKDTSKNHVFLKIANVDTADTATYYCARITTYYYGMDYWGQGTSVTVSS
VL: DIVLSQSPATLSVTPGDSVSLFCRASQSIGNHLHWYQQESHASPRLLIKYASQSISGIPSRFSGSGSGTDFTLSINSVETEDFGMYFCQQSYNWPLTFGAGTKLELK
notes: mouse IgG, kappa light chain; also called clone #16; purified antibody 16
Take B5: the “loss of binding vs wild type” value in the test with hiR2-FL-K536A-T7 was not below 60%.

B6: antibody 3 (antibody, V domains shown)
VH: QVTLKESGPGILQPSQTLSLTCSFSGFSLTTFAMGIGWVRQPSGKGLEWLAHIWWDGEKYNNPVLKSRLTISKDTSKNQVFLRIANVDTPDTATYYCARISSIYYIIDNWGQGTSVTVSS
VL: DIVLTQSPATLSVTPGHSVSLSCRASQSISNNLHWYQKKSHESPRLLIKYVSQSISGIPSRFSGSGSGTDFTLSINSVETEDFGMYFCQQSYNWPLTFGAGTKLELK
notes: mouse IgG, kappa light chain; also called clone #3; purified antibody 3
In the case of B6, the “loss of binding vs wild type” value was not below 30% in the test with hiR2-FL-G546A-T7 and not below 60% in the test with hiR2-FL-K536A-T7.

B7: antibody 48 (antibody, V domains shown)
VH: QVQLQQSGTELVRPGTSVKVSCKASGYAFTNYLIEWVKQRPGQGLEWIGVINPGSGFTKYNEKFKGKATLTADKSSSTVYMHLSSLTSEDSAVYFCARGLYRAMDYWGQGTSVTVSS
VL: DIQMTQSPASQSASLGESVTITCLASQTIATWLAWYQQKPGKSPQLLIYGATTLADGVPSRFSGGGSGTKFSFKISSLQAEDFVSYYCQQLYSTPYTFGGGTKLEIK
notes: mouse IgG, kappa light chain; also called clone #48; purified antibody 48
For the molecule B7, the “loss of binding vs wild type” value with hiR2-FL-K536A-T7 was not below 30%.

Values taken from patent publication US20240287172A1 (SCIRHOM, published 2024).
